Results from the nanobody polyreactivity screen of Harvey et al. (2022).

Experiment: yeast display, Sf9 membrane polyspecificity reagent, FACS + sequencing; frameworks hold sequencing errors
Method in brief: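 In a synthetic yeast display library (Saccharomyces cerevisiae BJ5465), nanobody expression was induced with galactose for 36–48 hours. FACS gates were set low and high (top ~1%) using anti-HA fluorescence for expression and streptavidin fluorescence for binding of the Sf9 membrane reagent. Each polyreactivity label is drawn from the gate of origin.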

## QVQLVESGGGLVQAGGSLRLSCAASGGTFRRYAMGWYRQAPGKEREFVAAITISGGNTYYADSVKGRFTISRDNAKNTVYLQMNSLKPEDTAVYYCAKDHIRKQPEGRRMDYWGQGTQVTVSS
  polyreactivity (PSR sort gate): low polyreactivity

## QVQLVESGGGLVQAGGSLRLSCAASGGTFRRYAMGWYRQAPGKERELVAAISWTGGSTYYADSVKGRFTISRDNAKNTVYLQMNSLKPEDTAVYYCAAVGSSSSKGGYWGQGTQVTVSS
  polyreactivity (PSR sort gate): high polyreactivity

## QVQLVESGGGLVQAGGSLRLSCAASGGTFRSYTMGWYRQAPGKERELVAAISWGGSTYYADSVKGRFTISRDNAKNTVYLQMNSLKPEDTAVYYCAADYWSFYRKRDYWGQGTQVTVSS
  polyreactivity (PSR sort gate): low polyreactivity

## QVQLVESGGGLVQAGGSLRLSCAASGGTFRVYAMGWYIQAPGKERELVASISWTVGGTYADSVKGRFTISRDNAKNTVYLQMNSLKPEDTAVYYCAAGGEWVNPYFPSSLDYWGQGTQVTVSS
  polyreactivity (PSR sort gate): low polyreactivity

## QVQLVESGGGLVQAGGSLRLSCAASGGTFRVYAMGWYRQAPGKERELVAAITGRGGSTYYADSVKGRFTISRDNAKNTVYLQMNSLKPEDTAVYYCAKDPVTTYYKYDYWGQGTQVTVSS
  polyreactivity (PSR sort gate): low polyreactivity

## QVQLVESGGGLVQAGGSLRLSCAASGGTFRVYAMGWYRQAPGKERELVAAITGRGGSTYYADSVKGRFTISRDNAKNTVYLQMNSLKPEDTAVYYCNKESELVEYDYWGQGTQVTVSS
  polyreactivity (PSR sort gate): low polyreactivity

## QVQLVESGGGLVQAGGSLRLSCAASGGTFRVYTMGWYRQAPGKERELVAAIILRGGGTYYADSVKGRFTISRDNAKNPVYLQMNSLNPEDTAVYYCNARSGNRYGPRYDYWGQGTQVTVSS
  polyreactivity (PSR sort gate): high polyreactivity

## QVQLVESGGGLVQAGGSLRLSCAASGGTFSKNAMGWSRQAPGKERELVADIRSGGSTYYADSVKGRFTISRDNAKNTVYLQMNSLKPEDTAVYYCNADGDVNEYDYWGQGTQVTVSS
  polyreactivity (PSR sort gate): low polyreactivity

## QVQLVESGGGLVQAGGSLRLSCAASGGTFSSNAMGWYRQAPGKERELVAAIRSTGRTYYADSVKGRFTISRDNAKNTVYLQMNSLKPEDTAVYYCAADLGRTPTGKIGFDYWGQGTQVTVSS
  polyreactivity (PSR sort gate): high polyreactivity

## QVQLVESGGGLVQAGGSLRLSCAASGGTFSSYDMGWYRQAPGKERELVAAISWSGSSTDYADSVKGRFTISRDNAKNTVYLQMNSLKPEDTAVYYCNTDYWEITYSGVIWPEYDYWGQGTQVTVSS
  polyreactivity (PSR sort gate): low polyreactivity

## QVQLVESGGGLVQAGGSLRLSCAASGGTFSYYAMGWYRQAPGKERELVAAISGNGDTTYYADSVKGRFTSSRDNAKNTVYLQMNSLKPEYTAVYYCNVYVSAGEEVEYWGQGTQVTVSS
  polyreactivity (PSR sort gate): low polyreactivity

## QVQLVESGGGLVQAGGSLRLSCAASGGTFSYYTMGWYRPAPGKERELVAAISSGGSTNYADSVKGRFTISRDNAKNTVYLQMNSLKPEDTAVYYCAVRSGRRNYDRPAFGYWGQGTQVTVSS
  polyreactivity (PSR sort gate): high polyreactivity

## QVQLVESGGGLVQAGGSLRLSCAASGGTFTDYAMGWYRQAPGKERELVAAISSVGSTNYADSVKGRFTISRDNAKNTVYLQMNSLKPEDTAVYYCAVDYGRAVQGDSITYDFNYWGQGTQVTVSS
  polyreactivity (PSR sort gate): low polyreactivity

## QVQLVESGGGLVQAGGSLRLSCAASGGTFTNYAMGWYRQAPGKERELVAAITDSGATTYYADSVKGRFTISRDNAKNTVYLQMNSLKPEDTAVYYCNAALDLYTDFDYWGQGTQVTVSS
  polyreactivity (PSR sort gate): low polyreactivity

## QVQLVESGGGLVQAGGSLRLSCAASGGTFVFYAMGWYRQAPGKERELVAAISSAGRTYYADSVKGRFTISRDNAKNTVYLQMNSLKPEDTAVYYCAAVSSQYDGRYYYWGQGTQVTVSS
  polyreactivity (PSR sort gate): high polyreactivity

## QVQLVESGGGLVQAGGSLRLSCAASGGTFVGYAMGWYRQAPGKERELVASITRRGGNTYYADSVKGRFTISRDNAKNTVYLQMNSLKPEDTAVYYCDRRYYYQYRYDYWGQGTQVTVSS
  polyreactivity (PSR sort gate): high polyreactivity

## QVQLVESGGGLVQAGGSLRLSCAASGGTFVRYAMGWYRQAPGKERELVAAISRSGGSTYYADSVKGRFTISRDNAKNTVYLQMNSLKPEDTAVFYCNKDRQRYGEDYWGQGTQVTVSS
  polyreactivity (PSR sort gate): high polyreactivity

## QVQLVESGGGLVQAGGSLRLSCAASGGTFVYALGWYRQAPGKERELVAAISARTTGTYYADSVKGRFTISRDNAKNTVYLQMNSLKPEDTAVYYCAAKSKLSRDLYSWGQGTQVTVSS
  polyreactivity (PSR sort gate): low polyreactivity

## QVQLVESGGGLVQAGGSLRLSCAASGGTFWAYTRGWYRQAPGKERELVATISFGTGNTYYADSVKGRFTISRDNAKNTVYLQMNSLKPEDTAVYYCAAQWPELTRSYVTVEVDYWGQGTQVTVSS
  polyreactivity (PSR sort gate): low polyreactivity

## QVQLVESGGGLVQAGGSLRLSCAASGGTFWRNDMGWYRQAPGKERELVAAISYSGGTTYYADSVKGRFTISRDNAKNTVDLQMNSLKPEDTAVDYCATGGYSTRQSTFDYWGQGTQVTVSS
  polyreactivity (PSR sort gate): low polyreactivity

## QVQLVESGGGLVQAGGSLRLSCAASGGTFYANAMGWYREAPGKERELVATITSSSGSTSYADSVKGRFTISRDNAKNTVYLQMNSLKPEDTAVYYCAKDSHAQGPYRYKHYHHTGDYWGQGTQVTVSS
  polyreactivity (PSR sort gate): low polyreactivity

## QVQLVESGGGLVQAGGSLRLSCAASGGTFYAYAMGWYRQAPGKERELVAAITSGGRTYYADSVKGRFTISRDNAKNTVYLQMNSLKPEDTAVYYCAAKYFRGVKRDYWGQGTQVTVSS
  polyreactivity (PSR sort gate): high polyreactivity

## QVQLVESGGGLVQAGGSLRLSCAASGGTFYEYVMGWDRQAPGKERELVAAISWGDGSTYYADSVKGRFTISRDNAKNTVYLQMNSLKPEDTAVYYCAADHTVFTYEYWGQGTQVTVSS
  polyreactivity (PSR sort gate): high polyreactivity

## QVQLVESGGGLVQAGGSLRLSCAASGGTFYPYAMGWYRPAPGKERELVAAISASDDNTYYADSVKGRFTISRDNAKNTVYLQMNSLKPEDTAVYYCAKRSYFYPYYYWGQGTQVTVSS
  polyreactivity (PSR sort gate): high polyreactivity

## QVQLVESGGGLVQAGGSLRLSCAASGGTFYRYAMGWYRQAPGKERELVAVISKRGGTTYYADSVKGRFTISRDNAKNTVYLQMNSLKPVDTAVYYCAVRAPQSYGYDYWGQGTQVTVSS
  polyreactivity (PSR sort gate): high polyreactivity

## QVQLVESGGGLVQAGGSLRLSCAASGGTFYSYAMGWYRQAPGTERELVAAISRRGGSTYYADSVKGRFTISLDNAKNTVYLQMNSLKPEDTAVYYCNTYIYQVRDDYWGQGTQVTVSS
  polyreactivity (PSR sort gate): high polyreactivity

## QVQLVESGGGLVQAGGSLRLSCAASGGTFYYNAMGWYRQAPGKERELVAAITDSGGRTYYADSVKGRFTISRDNAKNTVYLQMNSLKPEDTAVYYCAALARRQSRLYDYWGQGTQVTVSS
  polyreactivity (PSR sort gate): high polyreactivity

## QVQLVESGGGLVQAGGSLRLSCAASGGTFYYNAMGWYRQAPGKERELVAAITSGDRTYYADSVKGRFTISRDNAKYTVYLQMNSLKPEDTAVYYCAARWFRSNKYWGQGTQVTVSS
  polyreactivity (PSR sort gate): high polyreactivity

## QVQLVESGGGLVQAGGSLRLSCAASGGTFYYYAMGWSRQAPGKERELVAAISTSGTSTYYADSVKGRFTISRDNAKNTVYLQMNSLKPEVTAVYYCAARGLRVSSRGYYWGQGTQLTVSS
  polyreactivity (PSR sort gate): high polyreactivity

## QVQLVESGGGLVQAGGSLRLSCAASGGTIAGYAMGWYRHAPGKERELVASISDGGSTNYADSVKGRFTISRDNAKNTVYLQMNSLKPEDTAVYYCADLAYVPSYTYDYWGQGTQVTVSS
  polyreactivity (PSR sort gate): low polyreactivity

## QVQLVESGGGLVQAGGSLRLSCAASGGTIAYNAMGWYRQAPGKERELVAAISSSGGRTYYADSVKGRFTISRDNAKNTVYLQMNSLKPEDTAVYYCATPVTNGFDYWGQGTQVTVSS
  polyreactivity (PSR sort gate): high polyreactivity

## QVQLVESGGGLVQAGGSLRLSCAASGGTILYYAMGWYRQAPGKEMELVAAISRGGSTHYADSVKWRFTISRDNAKNTVYLQMNRLKPEDTAVFYCAVDGGEFSSYGYWGHGTQVTVSS
  polyreactivity (PSR sort gate): low polyreactivity
